PMC4010901 (The Journal of Experimental Medicine, 2014)
Where two headings read alike, the source gives them in different places. One block for each binder: values may come before it.

How the values were obtained:
[1] = molecular target: T1, recombinant mRGMb-HIS (R&D Systems) (mouse, UniProt Q7TQ33 49-415); experiment: ELISA
T1 sequence (looked up): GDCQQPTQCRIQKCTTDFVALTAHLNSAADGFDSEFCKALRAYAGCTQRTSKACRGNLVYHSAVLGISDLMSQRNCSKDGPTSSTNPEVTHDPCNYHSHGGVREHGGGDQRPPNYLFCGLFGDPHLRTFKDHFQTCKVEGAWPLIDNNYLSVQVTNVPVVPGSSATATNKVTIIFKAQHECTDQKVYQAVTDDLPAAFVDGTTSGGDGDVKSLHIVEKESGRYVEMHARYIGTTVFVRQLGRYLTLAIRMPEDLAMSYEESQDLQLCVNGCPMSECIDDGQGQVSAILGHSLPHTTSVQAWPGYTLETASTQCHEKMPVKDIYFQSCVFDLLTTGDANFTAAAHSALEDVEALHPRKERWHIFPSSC

[2] = molecular target: T2, recombinant hRGMb-HIS (R&D Systems) (human, UniProt Q6NW40 46-413); experiment: ELISA
T2 sequence (looked up): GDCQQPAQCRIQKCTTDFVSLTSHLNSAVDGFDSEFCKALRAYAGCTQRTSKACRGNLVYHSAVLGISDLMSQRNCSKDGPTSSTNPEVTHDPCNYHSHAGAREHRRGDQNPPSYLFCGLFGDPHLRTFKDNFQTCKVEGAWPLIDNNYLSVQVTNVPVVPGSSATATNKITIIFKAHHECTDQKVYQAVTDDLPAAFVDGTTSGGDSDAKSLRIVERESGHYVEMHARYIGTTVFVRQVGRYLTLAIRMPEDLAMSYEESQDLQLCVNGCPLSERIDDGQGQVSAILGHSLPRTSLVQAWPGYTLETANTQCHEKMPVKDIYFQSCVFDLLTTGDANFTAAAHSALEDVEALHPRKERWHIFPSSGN

[3] = molecular target: T1, recombinant mRGMb-HIS (R&D Systems); experiment: ELISA; remark: listed apart in the source
[4] = molecular target: T1, recombinant mRGMb-HIS (R&D Systems); experiment: ELISA; remark: listed apart in the source
[5] = molecular target: T2, recombinant hRGMb-HIS (R&D Systems); experiment: ELISA; remark: listed apart in the source
[6] = molecular target: T3, RGMb (R&D Systems) immobilised for Biacore ( (mouse and human RGMb-HIS …, UniProt Q7TQ33 49-415)); experiment: SPR
T3 sequence (looked up): T1 sequence (looked up)

B1: recombinant mouse BMP-2 (Invitrogen) (ligand, UniProt P21274 281-394, looked up)
chain: QAKHKQRKRLKSSCKRHPLYVDFSDVGWNDWIVAPPGYHAFYCHGECPFPLADHLNSTNHAIVQTLVNSVNSKIPKACCVPTELSAISMLYLDENEKVVLKNYQDMVVEGCGCR
- binding result [1]: binds

B2: hPD-L2-mIgG2a fusion protein (Fc fusion, human, UniProt Q9BQ51 20-220, looked up)
chain: LFTVTVPKELYIIEHGSNVTLECNFDTGSHVNLGAITASLQKVENDTSPHRERATLLEEQLPLGKASFHIPQVQVRDEGQYQCIIIYGVAWDYKYLTLKVKASYRKINTHILKVPETDEVELTCQATGYPLAEVSWPNVSVPANTSHSRTPEGLYQVTSVLRLKPPPGRNFSCVFWNTHVRELTLASIDLQSQMEPRTHPT
- binding result [2]: binds
- binding result [3]: binds

B3: recombinant mouse BMP-4 (R&D Systems) (ligand, UniProt P21275 293-408, looked up)
chain: SPKHHPQRSRKKNKNCRRHSLYVDFSDVGWNDWIVAPPGYQAFYCHGDCPFPLADHLNSTNHAIVQTLVNSVNSSIPKACCVPTELSAISMLYLDEYDKVVLKNYQEMVVEGCGCR
- binding result [4]: binds

More lines, now with the values ahead:

- binding result [5]: binds
B4: mPD-L2-hIgG1/IgA fusion protein (Fc fusion, mouse, UniProt Q9WUL5 20-221, looked up)
chain: LFTVTAPKEVYTVDVGSSVSLECDFDRRECTELEGIRASLQKVENDTSLQSERATLLEEQLPLGKALFHIPSVQVRDSGQYRCLVICGAAWDYKYLTVKVKASYMRIDTRILEVPGTGEVQLTCQARGYPLAEVSWQNVSVPANTSHIRTPEGLYQVTSVLRLKPQPSRNFSCMFWNAHMKELTSAIIDPLSRMEPKVPRTW

- Kd [6]: 48.5 nM
B5: mPD-L2-hIgG (R&D Systems) (Fc fusion, mouse, UniProt Q9WUL5 20-221, looked up)
chain: B4 chain
